The values below come from patent US20240261333A1, “NOVEL TARGETS FOR ENHANCING ANTI-TUMOR IMMUNITY” (THE BROAD INSTITUTE, INC., priority 2021, published 2024).

One assay has as its target PSMC2 (human) (UniProt P35998). Briefly: anti-FLAG co-IP from lysate of N-FLAG B3GNT2 cells, mass spectrometry.
In a further assay the target is LDHA (human) (UniProt P00338). Described as above.
The target of a further assay is ZRANB2 (human) (UniProt O95218). The assay is described as above.
A further assay concerns the target PSMA5 (human) (UniProt P28066). The assay is described as above.
Another assay concerns the target PGAM5 (human) (UniProt Q96HS1). The description is as above.
The next assay deals with PXN (human) (UniProt P49023). The assay is described as above.
Another assay addresses RPS6 (human) (UniProt P62753). Described as above.
A further assay concerns the target STAU1 (human) (UniProt O95793). The assay is described as above.
The target in a further assay is RPL15 (human) (UniProt P61313). The assay is described as above.
For a further assay, the target named is KPNB1 (human) (UniProt Q14974). The assay is described as above.
In a further assay the target is HSP90AB1 (human) (UniProt P08238). Described as above.
Chain of HSP90AB1 (human) (P08238 2-724 limits assumed): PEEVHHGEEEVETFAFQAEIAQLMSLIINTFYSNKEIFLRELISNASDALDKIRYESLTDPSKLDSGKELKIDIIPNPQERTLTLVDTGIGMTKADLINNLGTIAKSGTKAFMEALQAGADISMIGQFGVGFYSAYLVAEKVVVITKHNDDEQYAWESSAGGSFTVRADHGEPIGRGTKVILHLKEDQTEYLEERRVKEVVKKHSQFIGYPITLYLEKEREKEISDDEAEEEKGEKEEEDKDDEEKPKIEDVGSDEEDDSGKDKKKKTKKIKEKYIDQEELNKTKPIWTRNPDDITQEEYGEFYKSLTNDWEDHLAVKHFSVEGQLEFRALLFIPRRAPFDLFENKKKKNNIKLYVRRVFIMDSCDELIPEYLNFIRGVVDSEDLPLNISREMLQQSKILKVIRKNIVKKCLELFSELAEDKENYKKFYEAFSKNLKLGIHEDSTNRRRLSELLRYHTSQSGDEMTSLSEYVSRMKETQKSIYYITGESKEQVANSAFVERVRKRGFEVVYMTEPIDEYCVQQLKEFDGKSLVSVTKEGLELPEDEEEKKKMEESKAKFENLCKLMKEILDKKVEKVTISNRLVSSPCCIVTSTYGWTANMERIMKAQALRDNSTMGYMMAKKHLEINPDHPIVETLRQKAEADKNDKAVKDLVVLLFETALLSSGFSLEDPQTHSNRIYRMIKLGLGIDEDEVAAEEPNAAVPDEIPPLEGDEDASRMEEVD
For the next assay, the target named is PSMB4 (human) (UniProt P28070). The assay is described as above.
Chain of PSMB4 (human) (P28070 46-264 limits assumed): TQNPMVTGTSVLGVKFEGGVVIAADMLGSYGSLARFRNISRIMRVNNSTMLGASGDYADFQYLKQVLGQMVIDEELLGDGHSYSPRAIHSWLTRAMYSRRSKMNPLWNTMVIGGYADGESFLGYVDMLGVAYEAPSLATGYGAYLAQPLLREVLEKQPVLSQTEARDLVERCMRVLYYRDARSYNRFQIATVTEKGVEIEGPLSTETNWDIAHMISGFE
Another assay addresses PCMT1 (UniProt P22061). Description: co-IP with mouse IgG control, mass spectrometry; lysate of C-FLAG B3GNT2 cells.
The next assay addresses SPRR2E (UniProt P22531). The assay is described as above.
In the next assay the target is ENO1 (UniProt P06733). Described as above.
Chain of ENO1 (P06733 2-434 limits assumed): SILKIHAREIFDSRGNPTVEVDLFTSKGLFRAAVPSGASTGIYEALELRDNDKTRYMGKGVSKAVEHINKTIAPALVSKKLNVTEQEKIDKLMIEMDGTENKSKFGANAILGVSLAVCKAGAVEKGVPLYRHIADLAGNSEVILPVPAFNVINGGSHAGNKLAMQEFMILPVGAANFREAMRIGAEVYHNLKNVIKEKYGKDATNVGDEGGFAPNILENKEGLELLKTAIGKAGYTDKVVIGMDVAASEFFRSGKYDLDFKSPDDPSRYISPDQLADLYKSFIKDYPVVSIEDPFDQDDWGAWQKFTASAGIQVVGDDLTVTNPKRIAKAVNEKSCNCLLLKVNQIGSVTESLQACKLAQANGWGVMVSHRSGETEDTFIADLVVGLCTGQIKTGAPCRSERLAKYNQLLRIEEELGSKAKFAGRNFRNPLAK
For a further assay, the target named is RPS17 (UniProt P08708). The description is as above.
Another assay has as its target HNRNPF (UniProt P52597). The assay is described as above.
In a further assay the target is RCC2 (UniProt Q9P258). The assay is described as above.
The target in the next assay is PPIA (UniProt P62937). Described as above.
Chain of PPIA (P62937 2-165 limits assumed): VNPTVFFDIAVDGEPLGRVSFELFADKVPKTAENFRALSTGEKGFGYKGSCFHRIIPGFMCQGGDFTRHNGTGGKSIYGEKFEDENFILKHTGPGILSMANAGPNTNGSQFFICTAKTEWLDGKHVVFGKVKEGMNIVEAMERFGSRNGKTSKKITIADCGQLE
The next assay has as its target RPS11 (UniProt P62280). The description is as above.
The next assay concerns the target RPL36 (UniProt Q9Y3U8). The assay is described as above.
The target of the next assay is STRAP (UniProt Q9Y3F4). Described as above.
Another assay concerns the target CTSD (UniProt P07339). Described as above.
In the next assay the target is LTF (UniProt P02788). The description is as above.
Chain of LTF (P02788 20-710 limits assumed): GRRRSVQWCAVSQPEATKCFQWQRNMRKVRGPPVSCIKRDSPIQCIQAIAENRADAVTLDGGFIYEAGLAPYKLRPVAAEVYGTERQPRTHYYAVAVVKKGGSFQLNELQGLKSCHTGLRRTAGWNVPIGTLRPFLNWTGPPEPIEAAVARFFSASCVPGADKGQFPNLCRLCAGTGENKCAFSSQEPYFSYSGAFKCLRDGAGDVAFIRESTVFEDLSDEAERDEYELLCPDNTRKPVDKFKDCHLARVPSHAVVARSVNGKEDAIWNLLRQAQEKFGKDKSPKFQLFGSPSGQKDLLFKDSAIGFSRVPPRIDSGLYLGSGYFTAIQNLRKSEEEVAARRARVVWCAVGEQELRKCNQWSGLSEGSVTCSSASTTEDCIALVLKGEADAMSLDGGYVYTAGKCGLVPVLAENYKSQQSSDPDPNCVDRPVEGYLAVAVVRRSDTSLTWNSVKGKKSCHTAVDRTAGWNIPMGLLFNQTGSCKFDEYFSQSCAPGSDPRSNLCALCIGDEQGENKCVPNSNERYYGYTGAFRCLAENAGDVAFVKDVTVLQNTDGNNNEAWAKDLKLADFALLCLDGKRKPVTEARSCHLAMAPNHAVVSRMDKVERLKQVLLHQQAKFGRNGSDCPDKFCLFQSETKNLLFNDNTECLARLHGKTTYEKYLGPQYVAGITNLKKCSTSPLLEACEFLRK
The next assay concerns the target RPL10A (UniProt P62906). Described as above.
The next assay deals with RPL21 (UniProt P46778). The assay is described as above.
A further assay addresses RPL11 (UniProt P62913). The assay is described as above.
In another assay the target is FABP5 (UniProt Q01469). The assay is described as above.
The next assay deals with ACTR3 (UniProt P61158). The description is as above.
The target in another assay is TRIM21 (UniProt P19474). The description is as above.
Chain of TRIM21 (P19474 whole entry): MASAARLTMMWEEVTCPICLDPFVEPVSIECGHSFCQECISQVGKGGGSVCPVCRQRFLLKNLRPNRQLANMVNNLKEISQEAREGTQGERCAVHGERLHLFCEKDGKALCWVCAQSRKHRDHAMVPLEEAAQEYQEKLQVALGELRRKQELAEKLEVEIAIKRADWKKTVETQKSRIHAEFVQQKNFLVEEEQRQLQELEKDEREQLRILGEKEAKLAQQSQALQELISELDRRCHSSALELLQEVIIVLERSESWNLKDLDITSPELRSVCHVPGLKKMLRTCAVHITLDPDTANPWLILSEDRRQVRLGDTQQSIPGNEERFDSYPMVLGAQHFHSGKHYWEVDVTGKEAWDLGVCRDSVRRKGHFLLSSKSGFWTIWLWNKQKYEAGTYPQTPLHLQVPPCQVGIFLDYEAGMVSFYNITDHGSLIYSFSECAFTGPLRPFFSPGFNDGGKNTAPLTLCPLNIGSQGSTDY
The target in another assay is S100A8 (UniProt P05109). Described as above.
Chain of S100A8 (P05109 whole entry): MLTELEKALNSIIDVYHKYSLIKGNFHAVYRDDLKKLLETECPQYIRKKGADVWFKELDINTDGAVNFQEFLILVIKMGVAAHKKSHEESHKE
In another assay the target is RPS15A (UniProt P62244). Described as above.
The target of a further assay is RPN1 (UniProt P04843). The assay is described as above.
Chain of RPN1 (P04843 24-607 limits assumed): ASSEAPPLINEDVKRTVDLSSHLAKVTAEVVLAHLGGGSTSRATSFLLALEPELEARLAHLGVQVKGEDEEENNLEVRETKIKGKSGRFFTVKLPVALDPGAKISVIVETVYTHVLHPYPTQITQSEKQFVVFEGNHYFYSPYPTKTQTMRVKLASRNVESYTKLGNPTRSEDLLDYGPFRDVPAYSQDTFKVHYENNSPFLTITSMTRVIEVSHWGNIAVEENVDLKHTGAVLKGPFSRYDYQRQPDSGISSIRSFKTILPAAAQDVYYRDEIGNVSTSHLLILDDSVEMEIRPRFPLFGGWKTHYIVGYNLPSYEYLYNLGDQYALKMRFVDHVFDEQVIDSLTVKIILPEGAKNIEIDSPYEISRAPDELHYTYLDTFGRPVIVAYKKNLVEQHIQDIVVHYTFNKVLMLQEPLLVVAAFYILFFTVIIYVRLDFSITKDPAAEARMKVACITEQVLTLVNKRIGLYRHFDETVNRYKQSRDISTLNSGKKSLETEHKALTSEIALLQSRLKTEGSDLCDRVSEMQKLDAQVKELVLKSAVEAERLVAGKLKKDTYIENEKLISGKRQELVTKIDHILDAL
A further assay has as its target YBX3 (UniProt P16989). The assay is described as above.
The next assay has as its target RPL35A (UniProt P18077). Described as above.
Another assay deals with SERPINB12 (UniProt Q96P63). The assay is described as above.
In the next assay the target is YWHAZ (UniProt P63104). The assay is described as above.
Chain of YWHAZ (P63104 whole entry): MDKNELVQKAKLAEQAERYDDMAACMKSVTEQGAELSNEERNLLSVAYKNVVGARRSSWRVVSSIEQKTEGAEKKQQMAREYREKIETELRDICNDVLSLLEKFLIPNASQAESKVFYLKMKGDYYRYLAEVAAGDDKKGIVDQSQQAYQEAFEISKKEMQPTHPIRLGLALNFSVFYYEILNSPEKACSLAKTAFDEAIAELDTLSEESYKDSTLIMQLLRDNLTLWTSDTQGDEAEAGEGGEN
The next assay deals with SLIRP (UniProt Q9GZT3). The assay is described as above.

Chain of PCMT1 (P22061 2-227 limits assumed): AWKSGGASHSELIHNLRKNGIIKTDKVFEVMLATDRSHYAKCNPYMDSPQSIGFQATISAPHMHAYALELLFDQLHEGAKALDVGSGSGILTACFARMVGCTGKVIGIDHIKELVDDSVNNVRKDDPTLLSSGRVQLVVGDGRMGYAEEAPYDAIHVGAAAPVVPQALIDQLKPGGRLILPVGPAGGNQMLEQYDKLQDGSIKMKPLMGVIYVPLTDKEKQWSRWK
Chain of HNRNPF (P52597 2-415 limits assumed): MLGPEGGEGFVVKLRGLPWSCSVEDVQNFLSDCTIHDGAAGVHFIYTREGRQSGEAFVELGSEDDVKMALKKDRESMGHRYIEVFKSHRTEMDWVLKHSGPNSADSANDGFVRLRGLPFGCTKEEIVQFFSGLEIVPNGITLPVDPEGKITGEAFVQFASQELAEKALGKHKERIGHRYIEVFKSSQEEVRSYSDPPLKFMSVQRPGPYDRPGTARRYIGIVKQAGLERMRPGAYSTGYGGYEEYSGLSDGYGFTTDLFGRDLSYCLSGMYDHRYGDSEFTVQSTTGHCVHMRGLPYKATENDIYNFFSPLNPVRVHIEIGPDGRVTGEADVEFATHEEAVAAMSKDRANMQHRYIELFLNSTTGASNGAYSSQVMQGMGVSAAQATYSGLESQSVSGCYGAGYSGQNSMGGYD
Chain of PSMA5 (human) (P28066 whole entry): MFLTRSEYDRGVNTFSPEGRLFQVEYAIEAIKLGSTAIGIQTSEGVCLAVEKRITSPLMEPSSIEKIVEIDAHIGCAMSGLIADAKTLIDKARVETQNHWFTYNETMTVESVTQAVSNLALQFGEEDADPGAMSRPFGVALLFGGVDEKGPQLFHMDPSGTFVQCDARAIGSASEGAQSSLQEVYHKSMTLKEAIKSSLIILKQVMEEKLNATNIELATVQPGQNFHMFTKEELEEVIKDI
Chain of ZRANB2 (human) (O95218 other isoform, or with tags, fused parts or gaps limits assumed): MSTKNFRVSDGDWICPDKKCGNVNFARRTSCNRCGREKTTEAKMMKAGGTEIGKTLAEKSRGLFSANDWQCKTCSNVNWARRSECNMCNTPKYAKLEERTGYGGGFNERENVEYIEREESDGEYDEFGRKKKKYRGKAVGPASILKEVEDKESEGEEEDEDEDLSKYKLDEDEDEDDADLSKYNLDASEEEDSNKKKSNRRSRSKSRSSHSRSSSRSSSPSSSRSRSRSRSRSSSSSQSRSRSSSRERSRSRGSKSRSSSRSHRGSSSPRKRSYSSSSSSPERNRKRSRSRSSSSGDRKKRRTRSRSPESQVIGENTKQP

With “N-terminal FLAG tagged B3GNT2 (from UniProt Q9NY97 1-397) (enzyme)”, the co-IP mass spectrometry count with PSMC2 (human) worked out at 2; with LDHA (human), 5; in the assay with ZRANB2 (human), 5; with PSMA5 (human) it was 2; in the assay with PGAM5 (human), 4; with PXN (human), 2. Also, the co-IP mass spectrometry count with RPS6 (human) was determined as 11; with STAU1 (human), 2; with RPL15 (human), 6; in the assay with KPNB1 (human) it was 3; with HSP90AB1 (human) it was 10; with PSMB4 (human), 2.

On to “IgG control (Millipore Sigma 12-371) (antibody)”, for which the co-IP mass spectrometry count in the assay with PCMT1 worked out at 0; in the assay with SPRR2E, 5; with ENO1, 2; with RPS17 it was 5; with HNRNPF, 3; in the assay with RCC2, 0. Moreover, the co-IP mass spectrometry count amounted to 0 in the assay with PPIA; 9 with RPS11; 0 with RPL36; 0 with STRAP; 0 with CTSD; 2 with LTF. Further, the co-IP mass spectrometry count was found to be 0 in the assay with RPL10A; 5 with RPL21; 3 in the assay with RPL11; 0 with FABP5; 2 with ACTR3; 0 in the assay with TRIM21. The co-IP mass spectrometry count is 5 with S100A8; 2 with RPS15A; 0 with RPN1; 0 in the assay with YBX3; 0 with RPL35A; 0 with SERPINB12. For the same substance, the co-IP mass spectrometry count with YWHAZ and with SLIRP was 0 throughout.
